Broadly, the Kd is the constant that tells how readily two partners part at equilibrium. The low end stands for tighter binding, the high end for weaker binding. As usually defined, the koff is a measure of how fast the partners let go of each other. A lower koff goes with a long-lived complex. A word on the kon: it is the rate constant with which the complex forms. A lower kon goes with slow association.

Assay [1] addresses T1, human CD154 endogenously expressed on D1.1 Jurkat cells (human, UniProt P29965 1-261).
T1 sequence: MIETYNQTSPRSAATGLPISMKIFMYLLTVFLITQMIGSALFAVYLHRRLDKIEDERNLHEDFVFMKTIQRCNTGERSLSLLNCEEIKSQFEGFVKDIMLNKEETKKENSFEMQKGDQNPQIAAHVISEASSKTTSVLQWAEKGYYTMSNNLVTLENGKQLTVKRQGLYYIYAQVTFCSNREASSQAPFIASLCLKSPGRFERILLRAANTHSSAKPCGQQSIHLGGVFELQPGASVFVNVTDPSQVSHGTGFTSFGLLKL
As to the kind of experiment: cell-based or functional assay.

Assay [2] concerns the target T2, shCD154-ILZ (soluble human CD154, leucine zipper fusion) (human). Put plainly: cell-based or functional assay.
Assay [3] addresses T3, shCD154-his (soluble human CD154, His6 fusion) (human, UniProt P29965 113-261).
T3 construct: predominantly trimer
T3 sequence: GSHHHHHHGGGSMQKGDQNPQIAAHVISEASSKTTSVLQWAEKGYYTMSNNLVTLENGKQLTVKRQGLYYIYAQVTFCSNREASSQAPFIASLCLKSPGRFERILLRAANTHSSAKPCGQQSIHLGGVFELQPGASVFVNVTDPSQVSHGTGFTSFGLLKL
Put plainly: SPR (ProteOn XPR36), antibody captured via anti-human IgG Fc, shCD154-his analyte, 25 C, 1:1 Langmuir model. As to the method: (§1) Affinity measurements using Surface Plasmon Resonance (SPR) were performed using a ProteOn XPR36 system (BioRad). […] Approximately 4700 RU (response units) of test antibodies were immobilized. The kinetic experiments were performed at 25° C. in running buffer (DPBS+0.03% polysorbate P20+100 μg/ml BSA). […] The association phase was monitored for 3 minutes at 50 μL/min followed by 15 minutes of buffer flow (dissociation phase). The chip surface was regenerated with two 18 second pulses of 100 mM H₃PO₄ (Sigma, Cat#7961) at 100 μL/min.
(§2) The collected data were processed using ProteOn Manager software. First, the data was corrected for background using inter-spots. Then, double reference subtraction of the data was performed by using the buffer injection for analyte injections. The kinetic analysis of the data was performed using a Langmuir 1:1 binding model.
(§3) Affinity measurements were done using ProteOn as described in Example 1.

In assay [4] the target is T3, shCD154-his (soluble human CD154, His6 …). As to the kind of experiment: SPR (ProteOn XPR36), antibody captured via anti-human IgG Fc, shCD154-his analyte, 25 C, two-states binding model. As to the method: as §1, §3
The target is the same in assay [5]. Put plainly: cell-based or functional assay.
For assay [6] the target is unchanged. Put plainly: SPR (ProteOn XPR36) as in Example 1, human CD154; mean ± SD, n = 4. As to the method: as §1, §2
Assay [7] shares this target. Put plainly: SPR (ProteOn XPR36), protocols of Example 1; analyte not given. On the procedure:
as §1, §2

Assay [8] concerns the target T2, shCD154-ILZ (soluble human CD154, …). As to the kind of experiment: cell-based or functional assay. The source holds these as a separate data set.

B1: C4LB189 (antibody, V domains shown)
VH: QVQLVQSGAEVKKPGASVKVSCKASGYTFAAYYIHWVRQAPGQGLEWMGRINPDSGGTDYAQRFQGRVTMTRDTSISTAYMELSRLRSDDTAVFYCARDWNYYDGSGYFGPGYYGLDVWGQGTTVTVSS
VL: SYELTQPPSVSVSPGQTASVTCSGDKLGDKYVCWYQRKPGQSPVLVIYQDRKRPSGIPERFSGSNSGNTATLTISGTQAIDEADYYCQAWDSGTVVFGRGTKLTVL
notes: IgG2sigma effector silent mAb; lambda VL; also called VH C4LH240; VL C4LL116
As for B1, in assay [1], the “NF-κB SEAP reporter gene assay; IC50 (nM); D1.1 Jurkat” value is 2.06 nM. Also, the “NF-κB SEAP reporter gene assay; IC50 (nM); shCD154-ILZ” value in assay [2] was determined as 1.63 nM. In assay [3], this molecule had a Kd of 0.581 nM, a koff of 0.000206 s⁻¹ and a kon of 355000 M⁻¹ s⁻¹.

B2: C4LB191 (antibody, V domains shown)
VH: QVQLVQSGAEVKKPGASMKVSCKASGYTFTDYYIHWVRQAPGQGLEWVGRFNPNSGDTNGAQKFQGRVTMTRDTSISTAYMELTRLRSDDTAVYHCAREGELAGIFFDYWGQGTLVTVSS
VL: SYELTQPPSVSVSPGQTASITCSGDKLGDKYVSWNHQKPGQSPVLVIYQDRKRPSGIPERFSGSNSGNTATLTISGTQAMDEADYYCQAWDSSTVVFGGGTKLTVL
notes: IgG2sigma effector silent mAb; lambda VL; also called VH C4LH242; VL IAPL39
Regarding B2, in assay [3], the Kd worked out at 0.0313 nM, the koff stood at 0.000176 s⁻¹ and the kon was determined as 5.62e+06 M⁻¹ s⁻¹.

B3: C4LB94 (antibody, V domains shown)
VH: QVQLVQSGAEVKKPGSSVKVSCKASGGTFSSYAISWVRQAPGQGLEWMGGISPYFGNTNYAQKFQGRVTITADESTSTAYMELSSLRSEDTAVYYCARDTGWVGAFYLDYWGQGTLVTVSS
VL: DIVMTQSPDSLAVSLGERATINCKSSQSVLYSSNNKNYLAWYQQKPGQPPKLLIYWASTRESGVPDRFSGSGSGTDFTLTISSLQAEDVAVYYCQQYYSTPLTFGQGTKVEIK
notes: IgG2sigma, kappa; also called VH C4LH99; VL PH9L2
For the molecule B3, the “NF-κB SEAP reporter gene assay; IC50 (nM); D1.1 Jurkat” value in assay [1] was 0.13 nM. The “NF-κB SEAP reporter gene assay; IC50 (nM); shCD154-ILZ” value in assay [2] was 4.37 nM. In assay [4], this molecule came in with a dissociation constant Kd of 2.09 nM, a koff of 0.00329 s⁻¹ and a kon of 1.58e+06 M⁻¹ s⁻¹.

B4: C4LB237 (antibody, V domains shown)
VH: QVQLVQSGAEVKKPGSSVKVSCKASGGTFSSYGISWVRQAPGQGLEWMGWISPIFGNTNYAQKFQGRVTITADESTSTAYMELSSLRSEDTAVYYCARSRYYGDLDYWGQGTLVTVSS
VL: DIQMTQSPSSLSASVGDRVTITCRASQSISSYLNWYQQKPGKAPKLLIYYANSLQSGVPSRFSGSGSGTDFTLTISSLQPEDFATYYCQQSDSIPWTFGQGTKVEIK
notes: C4LB89 variable regions cloned as wild-type IgG1/kappa; also called C4LBB237
Regarding B4, the “NF-κB SEAP reporter gene assay; IC50” value in assay [5] was determined as 2.56 nM. In assay [6], this molecule yielded a dissociation constant Kd of 0.0236 nM, a koff of 6.05e-05 s⁻¹ and a kon of 2.59e+06 M⁻¹ s⁻¹.

B5: C4LB83 (antibody, V domains shown)
VH: QVQLVQSGAEVKKPGSSVKVSCKASGGTFSSYAISWVRQAPGQGLEWMGWIIPIFGNTNYAQKFQGRVTITADESTSTAYMELSSLRSEDTAVYYCAREKDFRGYTKLDYWGQGTLVTVSS
VL: DIQMTQSPSSLSASVGDRVTITCRASQSINNWLNWYQQKPGKAPKLLIYAASSLQSGVPSRFSGSGSGTDFTLTISSLQPEDFATYYCQQSFSFPYTFGQGTKVEIK
notes: IgG2sigma
On to B5, for which, in assay [7], the affinity, expressed as Kd, was 2.23 nM; the koff was 0.0047 s⁻¹; the kon turned out to be 2.1e+06 M⁻¹ s⁻¹.

B6: C4LB119 (antibody, V domains shown)
VH: QVQLVQSGAEVKKPGSSVKVSCKASGGTFSSYYISWVRQAPGQGLEWMGAIDPYFGYANYAQKFQGRVTITADESTSTAYMELSSLRSEDTAVYYCARTGLNYGGFDYWGQGTLVTVSS
VL: EIVLTQSPATLSLSPGERATLSCRASQSVSSYLAWYQQKPGQAPRLLIYDASNRATGIPARFSGSGSGTDFTLTISSLEPEDFAVYYCQQRSNWPLTFGQGTKVEIK
notes: IgG2sigma
Regarding B6, in assay [7], the dissociation constant (Kd) was determined as 4.79 nM, the koff came to 0.0088 s⁻¹ and the association rate constant (kon) came out at 1.84e+06 M⁻¹ s⁻¹.

B7: C4LB5 (antibody, V domains shown)
VH: QVQLVQSGAEVKKPGSSVKVSCKASGGTFSSYAISWVRQAPGQGLEWMGGIIPIFGTANYAQKFQGRVTITADESTSTAYMELSSLRSEDTAVYYCARGASVWDGPAEVFDYWGQGTLVTVSS
VL: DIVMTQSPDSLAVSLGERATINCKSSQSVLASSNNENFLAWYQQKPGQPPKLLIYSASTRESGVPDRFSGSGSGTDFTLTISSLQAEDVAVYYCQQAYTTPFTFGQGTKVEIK
notes: Phage-derived; IgG2sigma effector silent mAb (V234A, G237A, P238S, H268A, V309L, A330S, P331S), kappa; also called VH C4LH12; VL C4LL8
With B7, the “NF-κB SEAP reporter gene assay; IC50 (nM); D1.1 Jurkat” value in assay [1] worked out at 1.55 nM. Moreover, in assay [2], the “NF-κB SEAP reporter gene assay; IC50 (nM); shCD154-ILZ” value came out at 0.54 nM. In assay [3], this molecule showed a dissociation constant Kd of 0.312 nM, a dissociation rate constant (koff) of 0.000178 s⁻¹ and an on-rate (kon) of 570000 M⁻¹ s⁻¹. For the same molecule, in assay [8], the “B cell activation assay; IC50 (nM); shCD154-ILZ/cyno B cell” value came out at 5.35 nM and the “B cell activation assay; IC50 (nM); shCD154-ILZ/human B cells” value is 2.74 nM.

B8: C4LB89 (antibody, human IgG2, kappa)
heavy: QVQLVQSGAEVKKPGSSVKVSCKASGGTFSSYGISWVRQAPGQGLEWMGWISPIFGNTNYAQKFQGRVTITADESTSTAYMELSSLRSEDTAVYYCARSRYYGDLDYWGQGTLVTVSSASTKGPSVFPLAPCSRSTSESTAALGCLVKDYFPEPVTVSWNSGALTSGVHTFPAVLQSSGLYSLSSVVTVPSSNFGTQTYTCNVDHKPSNTKVDKTVERKCCVECPPCPAPPAAASSVFLFPPKPKDTLMISRTPEVTCVVVDVSAEDPEVQFNWYVDGVEVHNAKTKPREEQFNSTFRVVSVLTVLHQDWLNGKEYKCKVSNKGLPSSIEKTISKTKGQPREPQVYTLPPSREEMTKNQVSLTCLVKGFYPSDIAVEWESNGQPENNYKTTPPMLDSDGSFFLYSKLTVDKSRWQQGNVFSCSVMHEALHNHYTQKSLSLSPGK
light: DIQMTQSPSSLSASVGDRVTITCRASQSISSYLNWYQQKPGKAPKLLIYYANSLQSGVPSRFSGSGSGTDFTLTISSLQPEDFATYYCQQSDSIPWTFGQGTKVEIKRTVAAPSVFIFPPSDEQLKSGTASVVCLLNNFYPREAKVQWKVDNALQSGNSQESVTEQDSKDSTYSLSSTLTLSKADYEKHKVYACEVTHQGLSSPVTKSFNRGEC
notes: IgG2sigma/kappa; also called VH C4LH165; VL C4LL49
Consider B8, for which, in assay [5], the “NF-κB SEAP reporter gene assay; IC50” value came to 6.22 nM. In assay [3], this molecule yielded a dissociation constant (Kd) of 0.235 nM, a koff of 0.00038 s⁻¹ and a kon of 1.61e+06 M⁻¹ s⁻¹.

B9: C4LB150 (antibody, V domains shown)
VH: QLQLQESGPGLVKPSETLSLTCTVSGGSISSYSFYWGWIRQPPGQGLEWIGSLYYSGSTYYNPSLKSRATMSVVTSKTQFSLNLNSVTAADTAVYYCARLQLGTTTDYFDHWGQGTLVTVSS
VL: SYELTQPPSVSVSPGQTASITCSGDELGDKFACWYQQKPGQSPVLVIWQENKRPSGIPERFSGSNSGNTATLTISGTQAMDEADYYCQAWDSDTAVFGGGTKLTVL
notes: IgG2sigma effector silent mAb; lambda VL (OmniRat antibodies were cloned as IgG2sigma/lambda); also called VH C4LH201; VL C4LL82
Turning to B9, the “NF-κB SEAP reporter gene assay; IC50 (nM); D1.1 Jurkat” value in assay [1] is 3.57 nM. In assay [2], the “NF-κB SEAP reporter gene assay; IC50 (nM); shCD154-ILZ” value amounted to 4.95 nM. In assay [4], this molecule gave a Kd of 2.72 nM, a koff of 0.00617 s⁻¹ and a kon of 2.27e+06 M⁻¹ s⁻¹.

B10: C4LB199 (antibody, V domains shown)
VH: QVQLQESGPGLVKPSETLSLTCTVSGDSISSFIYYWGWIRQPPGKGLDWVGCIYSSGGTYYNPSLKSRVTISVDTSKNQFSLKLPSVTAADTAVYYCARLWLGTTTDYFDYWGQGTLVTVSS
VL: SYELTQPPSVSVSPGQTVSITCSGDKLGDKFACWYQQKPGQSPVVVIYQDDKRPSGIPERFSGSTSGNTATLTISGTQAMDEADYYCQAWDSNTVVFGGGTKLTVL
notes: IgG2sigma effector silent mAb; lambda VL; also called VH C4LH250; VL C4LL125
Turning to B10, in assay [1], the “NF-κB SEAP reporter gene assay; IC50 (nM); D1.1 Jurkat” value was determined as 1.21 nM. In assay [2], the “NF-κB SEAP reporter gene assay; IC50 (nM); shCD154-ILZ” value is 1.09 nM. In assay [3], this molecule registered a Kd of 0.253 nM, a koff of 0.000404 s⁻¹ and a kon of 1.6e+06 M⁻¹ s⁻¹.
